Values of other authors in publication PMC5877629.

Target: infliximab
Assay: sedimentation equilibrium analytical ultracentrifugation

- Kd: 21 µM
Substance: infliximab
